Results: patent publication US20050186203A1 (published 2005)
One block for each binder: values may come before it.

Legend:
[1] = biological target: T1, purified full-length human IGF-I receptor (affinity purified); directly coated or biotinylated and captured on … (human, UniProt P08069 31-1367, biotinylated with PEO-maleimide-biotin reagent in the captured format); test: ELISA binding competition with murine EM164 on full-length IGF-I receptor
T1 construct: mature; also called purified human IGF-I receptor; biotinylated human IGF-I receptor
Method: (§1) After equilibration, the bound humanized antibody was detected using a goat-anti-human-Fab′₂-antibody-horseradish peroxidase conjugate. Plots of ([bound murine Ab]/[bound humanized Ab]) vs ([murine Ab]/[humanized Ab]), which theoretically yield a straight line with slope=(K_{d humanized Ab}/K_{d murine Ab}), were used to determine the relative affinities of the humanized and murine antibodies.
(§2) An Immulon-2HB ELISA plate was coated with 100 μL of 5 μg/mL streptavidin per well in carbonate buffer at ambient temperature for 7 h. […] The wells were then washed with TBS-T buffer and incubated with goat-anti-human-Fab′₂-antibody-horseradish peroxidase conjugate for 1 h (100 μL; 1 μg/mL in blocking buffer), followed by washes and detection using ABTS/H₂O₂ substrate at 405 nm.

[2] = biological target: T1, purified full-length human IGF-I …; test: ELISA binding competition with murine EM164 on captured biotinylated IGF-I receptor
Method: as §1, §2

[3] = biological target: T2, human insulin receptor, overexpressed on 3T3-like cells of IGF-I receptor deficient mice (human, UniProt P06213 28-1382); test: FACS on cells overexpressing human insulin receptor
T2 construct: whole, on cells; also called insulin receptor overexpressing cells
Method: The cells were pelleted by centrifugation and washed with cold FACS buffer by gentle flicking, followed by incubation with goat-anti-mouse-IgG-antibody-FITC conjugate (100 μL; 10 μg/mL in FACS buffer) on ice for 1 h. The cells were pelleted, washed, and resuspended in 120 μL of 1% formaldehyde solution in PBS. The plate was analyzed using a FACSCalibur reader (BD Biosciences).

[4] = biological target: IGF-I receptor of 3T3 cells (mouse) (mouse, UniProt Q60751 31-1373); test: immunoprecipitation from cell lysate, Western blot
Sequence of IGF-I receptor of 3T3 cells (mouse) (Q60751 31-1373 limits assumed): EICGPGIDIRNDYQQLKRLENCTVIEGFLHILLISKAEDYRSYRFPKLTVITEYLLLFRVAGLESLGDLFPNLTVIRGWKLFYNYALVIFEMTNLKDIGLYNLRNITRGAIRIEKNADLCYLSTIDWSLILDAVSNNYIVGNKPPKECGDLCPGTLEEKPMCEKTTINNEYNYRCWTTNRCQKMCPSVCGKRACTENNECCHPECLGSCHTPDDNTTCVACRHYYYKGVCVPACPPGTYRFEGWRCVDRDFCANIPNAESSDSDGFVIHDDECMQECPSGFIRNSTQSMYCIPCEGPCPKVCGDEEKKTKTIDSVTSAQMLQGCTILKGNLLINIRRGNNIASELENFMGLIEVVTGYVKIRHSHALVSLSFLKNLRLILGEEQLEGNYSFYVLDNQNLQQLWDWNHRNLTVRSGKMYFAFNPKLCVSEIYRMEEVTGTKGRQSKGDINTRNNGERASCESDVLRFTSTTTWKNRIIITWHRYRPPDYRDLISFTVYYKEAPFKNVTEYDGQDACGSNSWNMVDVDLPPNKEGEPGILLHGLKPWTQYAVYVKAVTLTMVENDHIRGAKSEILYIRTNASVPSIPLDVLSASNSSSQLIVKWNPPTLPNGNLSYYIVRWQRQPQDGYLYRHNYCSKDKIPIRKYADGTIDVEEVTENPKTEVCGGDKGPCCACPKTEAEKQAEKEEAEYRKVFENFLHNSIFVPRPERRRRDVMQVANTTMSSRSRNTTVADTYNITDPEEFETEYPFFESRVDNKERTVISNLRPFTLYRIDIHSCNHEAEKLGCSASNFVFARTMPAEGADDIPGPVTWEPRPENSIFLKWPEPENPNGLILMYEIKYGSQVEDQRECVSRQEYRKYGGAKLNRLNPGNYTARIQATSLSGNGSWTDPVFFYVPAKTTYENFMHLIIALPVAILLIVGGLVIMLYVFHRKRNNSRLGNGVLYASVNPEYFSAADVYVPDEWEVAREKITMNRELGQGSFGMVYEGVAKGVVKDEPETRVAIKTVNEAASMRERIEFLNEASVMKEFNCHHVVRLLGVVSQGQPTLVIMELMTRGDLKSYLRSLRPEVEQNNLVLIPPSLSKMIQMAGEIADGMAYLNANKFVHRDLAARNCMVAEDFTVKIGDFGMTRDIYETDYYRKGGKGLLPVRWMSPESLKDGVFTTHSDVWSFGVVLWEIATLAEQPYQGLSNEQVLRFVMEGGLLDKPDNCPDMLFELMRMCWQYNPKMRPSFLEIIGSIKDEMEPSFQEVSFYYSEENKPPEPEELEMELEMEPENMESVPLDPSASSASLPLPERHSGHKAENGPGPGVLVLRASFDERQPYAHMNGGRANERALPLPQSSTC

B1: humanized EM164 antibody version 1.1 (antibody, V domains shown)
VH: QVQLVQSGAEVVKPGASVKLSCKASGYTFTSYWMHWVKQRPGQGLEWIGEINPSNGRTNYNQKFQGKATLTVDKSSSTAYMQLSSLTSEDSAVYYFARGRPDYYGSSKWYFDVWGQGTTVTVS
VL: DVLMTQTPLSLPVSLGDPASISCRSSQSIVHSNVNTYLEWYLQKPGQSPKLLIYKVSNRFSGVPDRFSGSGAGTDFTLRISRVEAEDLGIYYCFQGSHVPPTFGGGTKLEIKR
notes: Expressed transiently in 293T cells; also called huEM164 V1.1; v1.1
binding result [1]: binds

B2: humanized EM164 antibody version 1.2 (antibody, V domains shown)
VH: QVQLVQSGAEVVKPGASVKLSCKASGYTFTSYWMHWVKQRPGQGLEWIGEINPSNGRTNYNQKFQGKATLTVDKSSSTAYMQLSSLTSEDSAVYYFARGRPDYYGSSKWYFDVWGQGTTVTVS
VL: DVLMTQTPLSLPVSLGDPASISCRSSQSIVHSNVNTYLEWYLQKPGQSPRLLIYKVSNRFSGVPDRFSGSGAGTDFTLRISRVEAEDLGIYYCFQGSHVPPTFGGGTKLEIKR
notes: Expressed transiently in 293T cells; also called huEM164 V1.2; v1.2
binding result [1]: binds

Results, then the binder that gave them:

binding result [2]: binds
B3: humanized EM164 antibody version 1.0 (antibody, V domains shown)
VH: QVQLVQSGAEVVKPGASVKLSCKASGYTFTSYWMHWVKQRPGQGLEWIGEINPSNGRTNYNQKFQGKATLTVDKSSSTAYMQLSSLTSEDSAVYYFARGRPDYYGSSKWYFDVWGQGTTVTVS
VL: DVVMTQTPLSLPVSLGDPASISCRSSQSIVHSNVNTYLEWYLQKPGQSPRLLIYKVSNRFSGVPDRFSGSGAGTDFTLRISRVEAEDLGIYYCFQGSHVPPTFGGGTKLEIKR
notes: Expressed transiently in 293T cells; also called huEM164 V1.0; huEM164 v1.0

binding result [3]: no binding (tested: 50-100 nM)
binding result [4]: no binding
B4: murine anti-IGF-I receptor antibody EM164 (antibody, V domains shown)
VH: QVQLQQSGAELVKPGASVKLSCKASGYTFTSYWMHWVKQRPGQGLEWIGEINPSNGRTNYNEKFKRKATLTVDKSSSTAYMQLSSLTSEDSAVYYFARGRPDYYGSSKWYFDVWGAGTTVTVS
VL: DVLMTQTPLSLPVSLGDQASISCRSSQSIVHSNVNTYLEWYLQKPGQSPKLLIYKVSNRFSGVPDRFSGSGSGTDFTLRISRVEAEDLGIYYCFQGSHVPPTFGGGTKLEIKR
notes: also called EM164 antibody; muEM164
